From patent US20130136748A1 (Ablynx, published 2013)
“And” between values parts separate entries of the source, which are not always exact repeats. Equal entries are not always repeated.

How the values were obtained:
[1] = molecular target: T1, Chimeric chicken Her3-human domain 1 (AA1-206 human, AA207-642 chicken) (chicken/human chimera); experiment: FACS, HEK293 with chimeric HER3
T1 construct: Transmembrane and extracellular regions, on HEK293 cells
T1 chain: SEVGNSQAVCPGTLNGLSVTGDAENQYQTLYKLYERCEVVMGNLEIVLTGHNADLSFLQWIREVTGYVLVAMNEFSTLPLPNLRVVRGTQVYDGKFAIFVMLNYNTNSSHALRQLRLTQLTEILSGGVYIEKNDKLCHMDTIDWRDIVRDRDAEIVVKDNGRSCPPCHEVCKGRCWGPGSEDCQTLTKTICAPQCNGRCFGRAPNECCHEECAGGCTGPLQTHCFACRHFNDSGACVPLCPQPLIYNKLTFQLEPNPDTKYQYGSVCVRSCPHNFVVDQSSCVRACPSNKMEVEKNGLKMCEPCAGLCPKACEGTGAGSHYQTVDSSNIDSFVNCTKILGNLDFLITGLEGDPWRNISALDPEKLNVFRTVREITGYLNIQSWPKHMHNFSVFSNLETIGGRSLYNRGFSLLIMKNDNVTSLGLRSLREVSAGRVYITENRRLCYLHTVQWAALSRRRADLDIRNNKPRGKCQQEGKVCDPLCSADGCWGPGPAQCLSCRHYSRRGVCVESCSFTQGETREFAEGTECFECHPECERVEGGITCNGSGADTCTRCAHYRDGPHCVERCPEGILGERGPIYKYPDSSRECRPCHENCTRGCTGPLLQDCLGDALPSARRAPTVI

[2] = molecular target: T2, Chimeric chicken Her3-human domain 2 (AA207-328 human) (chicken/human chimera); experiment: FACS, HEK293 with chimeric HER3
T2 construct: Transmembrane and extracellular regions, on HEK293 cells
T2 chain: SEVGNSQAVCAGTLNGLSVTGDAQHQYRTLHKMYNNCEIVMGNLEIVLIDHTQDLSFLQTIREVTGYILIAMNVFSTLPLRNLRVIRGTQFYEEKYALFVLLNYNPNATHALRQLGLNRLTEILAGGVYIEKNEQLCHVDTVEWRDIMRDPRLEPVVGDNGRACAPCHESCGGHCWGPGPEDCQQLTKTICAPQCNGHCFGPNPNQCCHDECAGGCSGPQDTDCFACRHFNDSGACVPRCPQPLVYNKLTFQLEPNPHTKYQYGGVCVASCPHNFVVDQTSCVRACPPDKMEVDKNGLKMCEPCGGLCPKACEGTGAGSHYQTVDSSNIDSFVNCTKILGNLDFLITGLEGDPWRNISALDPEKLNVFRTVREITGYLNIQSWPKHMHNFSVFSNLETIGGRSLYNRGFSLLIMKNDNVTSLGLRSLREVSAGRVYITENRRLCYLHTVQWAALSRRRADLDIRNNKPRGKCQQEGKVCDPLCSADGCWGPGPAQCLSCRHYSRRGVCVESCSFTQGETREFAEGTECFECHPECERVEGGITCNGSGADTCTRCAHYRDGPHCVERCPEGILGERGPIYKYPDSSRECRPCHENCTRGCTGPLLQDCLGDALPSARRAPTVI

[3] = molecular target: T3, human HER3-Fc (R&D Systems, 348-RB) (human, UniProt P21860 20-643); experiment: SPR, HER3-Fc captured; heterogenous curve, main interaction (89%)
T3 construct: Bought; also called hHER3-Fc; Fc-HER3; Fc part of the bought chimera not given, not described

[4] = molecular target: T3, human HER3-Fc (R&D Systems, 348-RB); experiment: HRG competition alphascreen
[5] = molecular target: T4, hHER3 full length (human, UniProt P21860 20-1342); experiment: cell-based or functional assay
[6] = molecular target: T3, human HER3-Fc (R&D Systems, 348-RB); experiment: HRG competition alphascreen; remark: listed apart in the source
[7] = molecular target: T4, hHER3 full length; experiment: FACS competition with HRG1-β1-EGF, CHO-HER3
[8] = molecular target: T3, human HER3-Fc (R&D Systems, 348-RB); experiment: HRG competition alphascreen; remark: listed apart in the source
[9] = molecular target: T5, hHER3 ECD (human HER3 extracellular domain) (human, UniProt P21860 20-643); experiment: SPR off rate on HER3-ECD, periplasmic extract
T5 construct: also called recombinant HER3-ECD

[10] = molecular target: T5, hHER3 ECD (human HER3 extracellular …); experiment: SPR off rate
[11] = molecular target: T3, human HER3-Fc (R&D Systems, 348-RB); experiment: alphascreen, competitor biotinylated 18G11
[12] = molecular target: T5, hHER3 ECD (human HER3 extracellular …); experiment: off rate screening on recombinant HER3-ECD
[13] = molecular target: T3, human HER3-Fc (R&D Systems, 348-RB); experiment: 18G11 competition alphascreen
[14] = molecular target: T4, hHER3 full length; experiment: cell-based or functional assay; remark: listed apart in the source

| Binder | binding result [1] | binding result [2] | Kd [3] | kon [3] | % inhibition [4] | IC50 [4] | IC50 pHER3, HRG1-β1 stimulated MCF7 [5] | IC50 [6] | IC50 [7] | IC50 [8] | koff [9] | koff [10] | IC50 [11] | koff [12] | IC50 [13] | IC50 pHER3 blocking, HRG stimulated MCF7 [14] |
| --- | --- | --- | --- | --- | --- | --- | --- | --- | --- | --- | --- | --- | --- | --- | --- | --- |
| 17C08 (VHH, also called 17C8) VHH: EVQLVESGGGLMQAGDSLRLSCAASGRAFSSYALGWFRRAPGKERECVAATDRLGDNTYFPDSVKGRFTISRDNAKNTLYLQMNNLKPEDTAVYYCAAGAVRYGVSTSPMNYNYWGQGTQVTVSS | binds | binds | 48 nM | 8400 M⁻¹ s⁻¹ | – | – | – | – | – | – | – | – | – | – | – | – |
| 04C07 (VHH, also called HER3MS04C07; HER3MS004C07) VHH: EVQLVESGGGLVQAGGSLRLSCAASGFTFSSYPMSWVRQAPGKGPAWVSTVSPGGITTSYADSVKGRFTISRDNAKNTLYLQMNSLKPEDTAVYYCLRDLNNRGQGTQVTVSS | binds | – | – | – | 86.7% | 0.264 nM | 6.25e-09 M | 0.27 nM and 0.69 nM | 4.26 nM | 0.18 nM | – | – | – | – | – | – |
| 18G11 (VHH, c-myc, His6-tagged form as expressed; also called HER3MS18G11; HER3MS018G11) VHH: EVQLVESGGGLVQPGGSLRLSCAASGTLFKINAMGWYRQAPGKRRELVALITSSDTTDYAESVEGRFTISRDNTWNAVYLQMNSLKPEDTAVYYCHSDHYSMGVPEKRVIMYGQGTQVTVSS | – | binds | – | – | – | – | – | – | – | – | 0.00062 s⁻¹ and 0.00077 s⁻¹ | 0.00043 s⁻¹ and 0.00047 s⁻¹ | 3.2 nM | 0.00061 s⁻¹ | 4.4 nM | 2.91e-08 M |
